The target in this experiment is Recombinant human glutamine synthetase (GS) (human) (UniProt P15104). The experiment can be described thus: MST.
UniProt P15104, sequence (P15104 whole entry): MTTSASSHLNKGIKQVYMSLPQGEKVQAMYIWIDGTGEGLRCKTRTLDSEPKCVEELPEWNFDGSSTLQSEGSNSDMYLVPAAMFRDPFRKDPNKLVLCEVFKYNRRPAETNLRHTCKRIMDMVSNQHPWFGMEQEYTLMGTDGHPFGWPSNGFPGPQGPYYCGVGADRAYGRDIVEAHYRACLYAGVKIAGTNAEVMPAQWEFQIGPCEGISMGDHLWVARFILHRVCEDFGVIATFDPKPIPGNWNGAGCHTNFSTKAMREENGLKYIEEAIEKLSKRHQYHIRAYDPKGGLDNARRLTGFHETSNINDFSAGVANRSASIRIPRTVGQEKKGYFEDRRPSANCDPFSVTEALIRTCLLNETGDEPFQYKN

As for contryphan-Bt (peptide), the Kd – broadly, the concentration at which binding is half-saturated – was 74 µM.

Values taken from doi:10.1101/2020.12.10.419135.
